The text below walks through data of PMC4575486, “GDF-5 can act as a context-dependent BMP-2 antagonist” (BMC Biology, 2015).

For assay [1], the target named is T1, extracellular domain of human BMPR-IA (human, UniProt P36894 24-152). As to the kind of experiment: SPR; quality control of the recombinant ligands, as previously described (ref. 17).
Assay [2] concerns the target T1, extracellular domain of human BMPR-IA.
The target is the same in assay [3]. The experiment in a line: cell-based or functional assay.

Like-named read-outs stand apart in the source and are kept apart here.

T1 sequence (P36894 24-152): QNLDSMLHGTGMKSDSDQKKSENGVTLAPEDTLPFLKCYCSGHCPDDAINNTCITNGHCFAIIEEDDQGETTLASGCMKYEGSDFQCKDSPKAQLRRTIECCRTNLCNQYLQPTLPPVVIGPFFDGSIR

As a reminder, the Kd is the constant that tells how readily two partners part at equilibrium. Consider “GDF-5 R57A (growth and differentiation factor 5, variant R57A) (ligand)”, for which, in assay [1], the Kd came to 1.6 nM. In assay [2], this molecule registered an inhibition of ALP expression induced by 20 nM BMP-2 in C2C12 cells by increasing concentrations of GDF-5 R57A, IC50 of 5 nM.

B1: human GDF-5 (growth and differentiation factor 5), wild type (ligand, UniProt P43026 382-501, looked up)
chain: APLATRQGKRPSKNLKARCSRKALHVNFKDMGWDDWIIAPLEYEAFHCEGLCEFPLRSHLEPTNHAVIQTLMNSMDPESTPPTCCVPTRLSPISILFIDSANNVVYKQYEDMVVESCGCR
notes: human growth and differentiation factor 5, recombinant from E. coli; Homodimer; also called wild-type GDF-5; GDF-5WT; source: E. coli, purified (as previously described)
Regarding B1, in assay [1] (both partners purified), the Kd is 20 nM. Also, in assay [3], the “SMAD-1 phosphorylation in ATDC5 and C2C12 cells; concentration needed for phospho-SMAD levels comparable to BMP-2” value was around 10 fold; the “bone formation in the rat orthotopic (calvaria) model; amount of protein needed for the same ossified surface area as BMP-2 or GDF-5 R57A” value is around 20 fold; the “inhibition of ALP expression induced by 20 nM BMP-2 in C2C12 cells by increasing concentrations of wild-type GDF-5, IC50” value was found to be 70 nM.
